# The DeepSol protein solubility set
# Experiment: soluble on expression in E. coli; label from the status in PepcDB or PDB records
row,Sequence,soluble on expression in E. coli
1,MVVMSKVLLNIGCADVDKPGYINVDARKTKVTHLVSNAWDLDCFEENSVHEIYSRHMLEHLNPEYAKLALQKWFYILEPEGKLVVIVPDIEFHARQLLGVSRSSFGDQMEHAFAGFWGWREKERGGSDFDAHQWGYTVATLENEIGAVGFERIERVVEGVDSEPWHLQMTARKPMTSLCCPMDFRGPFPLEHHHHHH,soluble
2,MAQTPAFNKPKVELHVHLDGAIKPETILYFGKKRGIALPADTVEELRNIIGMDKPLSLPGFLAKFDYYMPVIAGCREAIKRIAYEFVEMKAKEGVVYVEVRYSPHLLANSKVDPMPWNQTEGDVTPDDVVDLVNQGLQEGEQAFGIKVRSILCCMRHQPSWSLEVLELCKKYNQKTVVAMDLAGDETIEGSSLFPGHVEAYEGAVKNGIHRTVHAGEVGSPEVVREAVDILKTERVGHGYHTIEDEALYNRLLKENMHFEVCPWSSYLTGAWDPKTTHAVVRFKNDKANYSLNTDDPLIFKSTLDTDYQMTKKDMGFTEEEFKRLNINAAKSSFLPEEEKKELLERLYREYQ,soluble
3,SLEKELKVITIDELKKYIRNNEEDKIEEVDVVTSATCGIMSGTAGIFHIPFNEVFKRAEEIYLNDIKGVVGICPNEFLGKVDAIFYGEVGFLFKDLVKGKVVEAKAISEGKIYKNEITIDDLPTAKMIGTRMAFKNYTAITNLSDEEVNTIFHRLPLKKGEASFSGCGMLNPLENMVIKDEKDVVGKKALLNGAEAIILGFGTRASIEKPNLMMSADMKDMDAYYLGGFVTSNGIEIYNTIAVPIKVDEHKEALKKLDKDITLPLVNIFGREIIDIGSYAEVWENVDLRPKIYQDKCKNCRECLVEKYCPTFAIKRENGKIKITEDCFGCGVCNICPYGVFKTKLGSVCGIPITCRQSDRKRALKLAKELKKKIERGEFKI,not soluble
4,MATKEKHVRKPDWVKIKLNTNENYIGLKKLMRENRLHTVCEEAKCPNIHECWAVRRTATFMILGSVCTRACRFCAVKTGLPTELDWQEPERVAESVRIMNLKHVVVTAVARDDLKDGGAAVFAETVRAIRRKNPFTTIEVLPSDMGGVYENLKILMDARPDILNHNIETVRRLTPRVRARATYERSLEFLRRAKELQPDIPTKSSIMVGLGETKEEIIEAMDDLRANHVDILTIGQYLQPTKKHLKVVKYYHPDEFQELKEIALSKGFSHCEAGPLVRSSYHADEQVSEAAKARQLKA,not soluble
5,MLNVESHVLRYWEEELEIKIPRNEMGHRYYTEDNIESLRKVRDLKKQGYSLKAIKNMVNPKKATRENKESNERLTVRQPISLMEVREKKVGVENCYQEVPEAMSGSVQSVVQNMTQSNGQNAESAGLKLEQFQNLMNKVVSKALKESTTNLGKELSDNVSENVLKGMNYMMRVQDEKEEERYRKLDELMRNKQKLSRREKRKKAKAEKLLLKNKKKGMAHFGKKPQTT,not soluble
6,MLEDMSKDALFYNYYAQWIEVYKKDAIREATMAKYRMTQKWVEKLAPELKVCELTRTAYQKILNDYAKEHERQTTLDFHHQLKGAVMDAVDEGLIERDPTRKAIIKGKTPREKKIKYLNQFELHTLIADLDIKEEPNWDWFILLVAKTGMRFSEALAITPKDFDFGRQTLSISKTWDYKGKGGFLPTKNKSSVRKIQIDWQIVVKFSELIKGLPEDEPIFVGEEKIYNSTVNDALTRHCKACGISEISIHGLRHTHASLLLFAGVSIASVARRLGHASMTTTQKTYLHIIQELENKDVDLVMRTLSGL,soluble
7,AVNEENIMIPKGVEVYEITGPYFFGIATKFEETMAQLGDRPNVRIIRMRKVPFIDSTGIHNLTTLCEMSQKEKITVILSGVNEKVYKVLEKSGFYELLGKENICPNFKIALDRAEEVMK,soluble
8,MVVSIITPLYKVEDFIARCADSLFRQSYTEIEYIFVDDCSSDRSVEVLLQVAERYPQLQQQIRILHHESNRGVAAARETGLAAATGEYVYWVDADDWIEPDAIEKMVVRSEQGQKDIIACGWYLCFRQNERRMPMPCYADAETALRGMLSGTMRWNLWLYMIKRDLYLMNDIHFMEGENVGEDMLVLIKLFSHAKSIGFVKDAFYHYVKQNENSLTRLSPEQQMKRQMRNLQAATDYLVTHFIGKYEKEINFFKLNAKMPLLISNDKNSYRTWTACFPEANKYIMANKRQTLRMRLVQLMAAKRQFWLVELYYQLVFKFVYGILYK,not soluble
